Ends that are not written are not given here.
Columns and labels:
Assay in all cases: peptide microarray
ApoC3 peptide … V43F = target: T1, ApoC3 peptide … V43F (human, not fully specified; cyclic constrained)
T1 peptide: ARGWFTDGFSSLK
In short: (§1)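 Peptide microarrays of ApoC3-derived peptides incubated with antibody samples, then stained with goat anti-human IgG (Fc) DyLight680 (1:5000) and anti-HA DyLight800 (1:2000) control. Read-out by fluorescence scanning at intensities 7/7 (red/green); a secondary-only pre-stain checked background, HA frame peptides served as quality control.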

ApoC3 peptide … W42L = target: T2, ApoC3 peptide … W42L (human, not fully specified (bridges); also: cyclic constrained)
T2 peptide: ARGLVTDGFSSLK
In short: as §1

ApoC3 peptide … F47M = target: T3, ApoC3 peptide … F47M (human, not fully specified (bridges); also: cyclic constrained)
T3 peptide: ARGWVTDGMSSLK
In short: as §1

ApoC3 peptide … V43A = target: T4, ApoC3 peptide … V43A (human, not fully specified; cyclic constrained)
T4 peptide: ARGWATDGFSSLK
In short: as §1

ApoC3 peptide … K51G = target: T5, ApoC3 peptide … K51G (human, thioether (positions not given here); also: cyclic constrained)
T5 peptide: ARGWVTDGFSSLG
In short: as §1

ApoC3 peptide … V43S = target: T6, ApoC3 peptide … V43S (human, not fully specified (bridges); also: cyclic constrained)
T6 peptide: ARGWSTDGFSSLK
In short: as §1

ApoC3 peptide … V43H = target: T7, ApoC3 peptide … V43H (human, not fully specified; cyclic constrained)
T7 peptide: ARGWHTDGFSSLK
In short: as §1

ApoC3 peptide … W42K = target: T8, ApoC3 peptide … W42K (human, not fully specified (bridges); also: cyclic constrained)
T8 peptide: ARGKVTDGFSSLK
In short: as §1

ApoC3 peptide … S48C = target: T9, ApoC3 peptide … S48C (human, not fully specified; cyclic constrained)
T9 peptide: ARGWVTDGFCSLK
In short: as §1

ApoC3 peptide … T44Q = target: T10, ApoC3 peptide … T44Q (human, not fully specified (bridges); also: cyclic constrained)
T10 peptide: ARGWVQDGFSSLK
In short: as §1

ApoC3 peptide … S48L = target: T11, ApoC3 peptide … S48L (human, not fully specified (bridges); also: cyclic constrained)
T11 peptide: ARGWVTDGFLSLK
In short: as §1

ApoC3 peptide … A39N = target: T12, ApoC3 peptide … A39N (human, cyclic constrained)
T12 peptide: NRGWVTDGFSSLK
In short: as §1

ApoC3 peptide … F47V = target: T13, ApoC3 peptide … F47V (human, also: cyclic constrained)
T13 peptide: ARGWVTDGVSSLK
In short: as §1

ApoC3 peptide … S49A = target: T14, ApoC3 peptide … S49A (human, not fully specified (bridges); also: cyclic constrained)
T14 peptide: ARGWVTDGFSALK
In short: as §1

ApoC3 peptide … A39V = target: T15, ApoC3 peptide … A39V (human, not fully specified (bridges); also: cyclic constrained)
T15 peptide: VRGWVTDGFSSLK
In short: as §1

ApoC3 peptide … R40E = target: T16, ApoC3 peptide … R40E (human, not fully specified (bridges); also: cyclic constrained)
T16 peptide: AEGWVTDGFSSLK
In short: as §1

ApoC3 peptide … G41Y = target: T17, ApoC3 peptide … G41Y (human, also: cyclic constrained)
T17 peptide: ARYWVTDGFSSLK
In short: as §1

ApoC3 peptide … V43E = target: T18, ApoC3 peptide … V43E (human, not fully specified; cyclic constrained)
T18 peptide: ARGWETDGFSSLK
In short: as §1

ApoC3 peptide … F47Q = target: T19, ApoC3 peptide … F47Q (human, not fully specified (bridges); also: cyclic constrained)
T19 peptide: ARGWVTDGQSSLK
In short: as §1

ApoC3 peptide … L50K = target: T20, ApoC3 peptide … L50K (human, not fully specified; cyclic constrained)
T20 peptide: ARGWVTDGFSSKK
In short: as §1

ApoC3 peptide … S49I = target: T21, ApoC3 peptide … S49I (human, cyclic constrained)
T21 peptide: ARGWVTDGFSILK
In short: as §1

ApoC3 peptide … T44D = target: T22, ApoC3 peptide … T44D (human, not fully specified (bridges); also: cyclic constrained)
T22 peptide: ARGWVDDGFSSLK
In short: as §1

ApoC3 peptide … G46L = target: T23, ApoC3 peptide … G46L (human, not fully specified (bridges); also: cyclic constrained)
T23 peptide: ARGWVTDLFSSLK
In short: as §1

ApoC3 peptide … K51F = target: T24, ApoC3 peptide … K51F (human, thioether (positions not given here); also: cyclic constrained)
T24 peptide: ARGWVTDGFSSLF
In short: as §1

ApoC3 peptide … R40P = target: T25, ApoC3 peptide … R40P (human, not fully specified (bridges); also: cyclic constrained)
T25 peptide: APGWVTDGFSSLK
In short: as §1

ApoC3 peptide … T44G = target: T26, ApoC3 peptide … T44G (human, not fully specified (bridges); also: cyclic constrained)
T26 peptide: ARGWVGDGFSSLK
In short: as §1

ApoC3 peptide … D45N = target: T27, ApoC3 peptide … D45N (human, cyclic constrained)
T27 peptide: ARGWVTNGFSSLK
In short: as §1

ApoC3 peptide … K51Y = target: T28, ApoC3 peptide … K51Y (human, not fully specified; cyclic constrained)
T28 peptide: ARGWVTDGFSSLY
In short: as §1

ApoC3 peptide … V43C = target: T29, ApoC3 peptide … V43C (human, not fully specified; cyclic constrained)
T29 peptide: ARGWCTDGFSSLK
In short: as §1

ApoC3 peptide … G41H = target: T30, ApoC3 peptide … G41H (human, also: cyclic constrained)
T30 peptide: ARHWVTDGFSSLK
In short: as §1

B1: anti-ApoC3 antibody 14C7 (antibody, V domains shown)
VH: QVQVQESGPGLVKPSQTLSLTCTVSGGSITTNSYYWSWIRQPPGKGLEWMGAIDYSGDTYYSPSLKSRTSISRDTSKNQFTLQLTSVTPEDTAVYYCVSRIPTGEYWGQGTQVTVSS
VL: QTVVTQEPSLSVSPGGTVTLTCGLNSGSVTSSNYPDWYQQTPGQAPRLLIYNTNSRHSGVPSRFSGSISGNKAALTITGAQPEDEADYYCALYMGSDSVVFGGGTHLTVL
notes: it was detected with goat anti-human IgG (Fc); also called mAb 14C7; llama antibody 14C7
B1 was tested, and the “% of binding to wild-type peptide” value (ApoC3 peptide … V43F) was 68.9%, the “% of binding to wild-type peptide” value (ApoC3 peptide … W42L) was 312% and the “% of binding to wild-type peptide” value (ApoC3 peptide … F47M) was 0%. The “% of binding to wild-type peptide” value (ApoC3 peptide … V43A) was 26.9%, the “% of binding to wild-type peptide” value (ApoC3 peptide … K51G) was 5.77% and the “% of binding to wild-type peptide” value (ApoC3 peptide … V43S) was 1.54%. The “% of binding to wild-type peptide” value (ApoC3 peptide … V43H) was 14.6%, the “% of binding to wild-type peptide” value (ApoC3 peptide … W42K) was 136% and the “% of binding to wild-type peptide” value (ApoC3 peptide … S48C) was 56.8%. For the same binder, the “% of binding to wild-type peptide” value (ApoC3 peptide … T44Q) was 0%, the “% of binding to wild-type peptide” value (ApoC3 peptide … S48L) was 19.6% and the “% of binding to wild-type peptide” value (ApoC3 peptide … A39N) was 103%. For the same binder, the “% of binding to wild-type peptide” value (ApoC3 peptide … F47V) was 0.06%, the “% of binding to wild-type peptide” value (ApoC3 peptide … S49A) was 2.43% and the “% of binding to wild-type peptide” value (ApoC3 peptide … A39V) was 76%. The “% of binding to wild-type peptide” value (ApoC3 peptide … R40E) was 76.9%, the “% of binding to wild-type peptide” value (ApoC3 peptide … G41Y) was 6.27% and the “% of binding to wild-type peptide” value (ApoC3 peptide … V43E) was 0%. The “% of binding to wild-type peptide” value (ApoC3 peptide … F47Q) was 0%, the “% of binding to wild-type peptide” value (ApoC3 peptide … L50K) was 0.74% and the “% of binding to wild-type peptide” value (ApoC3 peptide … S49I) was 0%. For the same binder, the “% of binding to wild-type peptide” value (ApoC3 peptide … T44D) was 0%, the “% of binding to wild-type peptide” value (ApoC3 peptide … G46L) was 0% and the “% of binding to wild-type peptide” value (ApoC3 peptide … K51F) was 6.24%. The “% of binding to wild-type peptide” value (ApoC3 peptide … R40P) was 52.7%, the “% of binding to wild-type peptide” value (ApoC3 peptide … T44G) was 0% and the “% of binding to wild-type peptide” value (ApoC3 peptide … D45N) was 4.85%. For the same binder, the “% of binding to wild-type peptide” value (ApoC3 peptide … K51Y) was 0%, the “% of binding to wild-type peptide” value (ApoC3 peptide … V43C) was 0.12% and the “% of binding to wild-type peptide” value (ApoC3 peptide … G41H) was 23.1%.

Reference: patent US20190241648A1 (STATEN BIOTECHNOLOGY B V, published 2019)
